Measured values from patent publication US20160200782A1 (MOERAE MATRIX, published 2016).

T1: SGK3(h) (human, UniProt Q96BR1 1-496, limits assumed)
T1 sequence (looked up): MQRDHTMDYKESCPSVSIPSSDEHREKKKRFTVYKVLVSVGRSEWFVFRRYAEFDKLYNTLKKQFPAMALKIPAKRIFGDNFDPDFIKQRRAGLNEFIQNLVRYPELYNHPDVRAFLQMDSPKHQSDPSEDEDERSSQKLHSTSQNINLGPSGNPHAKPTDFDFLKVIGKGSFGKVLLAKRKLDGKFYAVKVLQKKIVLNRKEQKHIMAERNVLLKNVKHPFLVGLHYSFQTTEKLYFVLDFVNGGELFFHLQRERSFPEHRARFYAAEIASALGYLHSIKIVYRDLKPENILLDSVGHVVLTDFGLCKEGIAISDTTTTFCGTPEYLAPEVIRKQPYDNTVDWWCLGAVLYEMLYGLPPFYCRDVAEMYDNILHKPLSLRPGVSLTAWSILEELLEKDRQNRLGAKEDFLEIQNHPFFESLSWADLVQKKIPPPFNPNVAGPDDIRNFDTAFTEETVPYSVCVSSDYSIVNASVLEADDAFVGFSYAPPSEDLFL

T2: ZAP-70(h) (human, UniProt P43403 1-619, limits assumed)
T2 sequence (looked up): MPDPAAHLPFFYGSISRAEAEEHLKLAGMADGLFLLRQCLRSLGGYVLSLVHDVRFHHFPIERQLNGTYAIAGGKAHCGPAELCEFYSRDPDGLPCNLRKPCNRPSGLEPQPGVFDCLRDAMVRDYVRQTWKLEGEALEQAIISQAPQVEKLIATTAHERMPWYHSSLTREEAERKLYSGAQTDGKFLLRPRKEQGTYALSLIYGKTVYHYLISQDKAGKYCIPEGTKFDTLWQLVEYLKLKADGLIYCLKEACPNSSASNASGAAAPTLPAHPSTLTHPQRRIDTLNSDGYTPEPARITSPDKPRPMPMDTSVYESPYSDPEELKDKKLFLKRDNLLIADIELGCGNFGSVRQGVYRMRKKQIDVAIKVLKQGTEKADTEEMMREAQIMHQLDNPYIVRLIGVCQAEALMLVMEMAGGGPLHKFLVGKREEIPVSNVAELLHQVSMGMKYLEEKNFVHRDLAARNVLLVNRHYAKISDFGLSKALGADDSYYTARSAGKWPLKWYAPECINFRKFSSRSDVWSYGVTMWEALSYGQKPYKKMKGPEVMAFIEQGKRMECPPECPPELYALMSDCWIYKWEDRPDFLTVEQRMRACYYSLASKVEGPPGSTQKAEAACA

T3: ULK2(h) (human, UniProt Q8IYT8 1-478, limits assumed)
T3 sequence (looked up): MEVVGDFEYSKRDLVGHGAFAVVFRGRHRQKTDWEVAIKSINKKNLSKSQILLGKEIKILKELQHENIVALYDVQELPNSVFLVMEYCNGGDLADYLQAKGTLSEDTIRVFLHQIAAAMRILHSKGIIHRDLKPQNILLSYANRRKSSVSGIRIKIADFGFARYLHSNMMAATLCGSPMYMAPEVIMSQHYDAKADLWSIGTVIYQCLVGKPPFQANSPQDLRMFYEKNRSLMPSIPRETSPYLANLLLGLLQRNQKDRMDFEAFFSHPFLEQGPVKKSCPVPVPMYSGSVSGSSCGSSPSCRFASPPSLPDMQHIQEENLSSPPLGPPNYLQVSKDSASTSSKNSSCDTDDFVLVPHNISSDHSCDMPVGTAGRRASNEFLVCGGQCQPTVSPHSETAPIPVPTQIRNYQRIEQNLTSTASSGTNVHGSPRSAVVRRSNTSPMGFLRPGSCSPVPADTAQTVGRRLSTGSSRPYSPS

T4: CaMKIV(h) (human, UniProt Q16566 1-473, limits assumed)
T4 sequence (looked up): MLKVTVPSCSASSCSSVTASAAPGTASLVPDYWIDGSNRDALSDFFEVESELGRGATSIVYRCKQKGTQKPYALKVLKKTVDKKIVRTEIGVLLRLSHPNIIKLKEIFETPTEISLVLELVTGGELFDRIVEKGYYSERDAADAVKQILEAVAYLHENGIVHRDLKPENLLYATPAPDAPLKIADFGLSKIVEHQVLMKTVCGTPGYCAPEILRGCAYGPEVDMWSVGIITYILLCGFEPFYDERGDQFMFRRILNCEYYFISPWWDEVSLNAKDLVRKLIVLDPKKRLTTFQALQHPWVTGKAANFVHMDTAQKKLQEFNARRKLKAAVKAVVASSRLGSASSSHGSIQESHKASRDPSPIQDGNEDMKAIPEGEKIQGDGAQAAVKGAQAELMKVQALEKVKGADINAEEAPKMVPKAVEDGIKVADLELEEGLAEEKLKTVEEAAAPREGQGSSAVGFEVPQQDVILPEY


Columns and labels:
Experiment in all cases: cell-based or functional assay
SGK3(h) = biological target: T1, SGK3(h)
MAPKAP-K3(h) = MAPKAP-K3(h) (human, UniProt Q16644 1-382, limits assumed)
MAPKAP-K3(h), sequence (Q16644 whole entry): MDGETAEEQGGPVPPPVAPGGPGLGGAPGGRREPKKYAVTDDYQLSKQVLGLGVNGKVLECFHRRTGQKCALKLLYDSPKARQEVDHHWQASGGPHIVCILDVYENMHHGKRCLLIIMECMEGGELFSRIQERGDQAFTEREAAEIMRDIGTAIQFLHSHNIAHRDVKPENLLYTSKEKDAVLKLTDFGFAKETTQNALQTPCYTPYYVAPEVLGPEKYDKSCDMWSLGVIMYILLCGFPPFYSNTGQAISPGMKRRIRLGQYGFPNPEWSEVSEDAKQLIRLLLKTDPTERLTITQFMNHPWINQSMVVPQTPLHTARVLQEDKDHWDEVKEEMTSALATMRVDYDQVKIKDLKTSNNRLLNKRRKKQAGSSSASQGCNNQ

ZAP-70(h) = biological target: T2, ZAP-70(h)
CHK2(R145W)(h) = CHK2(R145W)(h) (human, UniProt O96017 5-543, limits assumed)
CHK2(R145W)(h), sequence (O96017 5-543 R145W limits assumed): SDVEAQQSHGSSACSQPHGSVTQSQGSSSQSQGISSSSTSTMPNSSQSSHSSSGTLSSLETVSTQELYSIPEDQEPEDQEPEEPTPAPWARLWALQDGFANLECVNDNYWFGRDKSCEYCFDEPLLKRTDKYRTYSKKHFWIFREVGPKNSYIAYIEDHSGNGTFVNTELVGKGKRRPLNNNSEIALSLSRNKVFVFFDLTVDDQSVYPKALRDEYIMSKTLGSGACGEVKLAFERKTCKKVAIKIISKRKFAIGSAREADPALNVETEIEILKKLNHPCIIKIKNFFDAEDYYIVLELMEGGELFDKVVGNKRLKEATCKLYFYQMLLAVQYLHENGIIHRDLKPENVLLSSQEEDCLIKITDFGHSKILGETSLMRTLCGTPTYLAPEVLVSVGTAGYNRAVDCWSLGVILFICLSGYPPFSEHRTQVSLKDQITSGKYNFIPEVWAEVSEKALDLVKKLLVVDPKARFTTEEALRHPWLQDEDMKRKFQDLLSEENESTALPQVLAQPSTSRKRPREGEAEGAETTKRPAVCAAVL

ULK2(h) = biological target: T3, ULK2(h)
PKCθ(h) = PKCθ(h) (human, UniProt Q04759 1-706)
PKCθ(h), sequence (Q04759 whole entry): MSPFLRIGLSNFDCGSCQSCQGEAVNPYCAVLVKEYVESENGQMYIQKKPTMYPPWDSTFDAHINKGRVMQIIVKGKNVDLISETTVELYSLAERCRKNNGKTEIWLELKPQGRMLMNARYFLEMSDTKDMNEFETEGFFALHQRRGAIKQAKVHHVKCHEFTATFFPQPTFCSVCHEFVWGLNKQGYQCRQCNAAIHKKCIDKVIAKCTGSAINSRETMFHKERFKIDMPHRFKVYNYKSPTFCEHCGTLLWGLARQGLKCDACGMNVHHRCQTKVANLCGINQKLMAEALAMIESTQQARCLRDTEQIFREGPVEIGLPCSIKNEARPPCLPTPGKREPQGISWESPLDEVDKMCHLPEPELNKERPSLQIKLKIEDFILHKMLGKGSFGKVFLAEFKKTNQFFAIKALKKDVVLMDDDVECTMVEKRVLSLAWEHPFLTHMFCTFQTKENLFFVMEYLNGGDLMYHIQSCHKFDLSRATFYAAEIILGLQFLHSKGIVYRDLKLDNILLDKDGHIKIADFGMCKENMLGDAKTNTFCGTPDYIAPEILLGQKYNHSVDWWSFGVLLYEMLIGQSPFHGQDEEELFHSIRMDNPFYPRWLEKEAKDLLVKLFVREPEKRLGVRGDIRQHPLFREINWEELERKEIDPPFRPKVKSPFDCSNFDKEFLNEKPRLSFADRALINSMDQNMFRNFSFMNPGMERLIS

CaMKIV(h) = biological target: T4, CaMKIV(h)
JNK3(h) = JNK3(h) (human, UniProt P53779 1-464, limits assumed)
JNK3(h), sequence (P53779 whole entry): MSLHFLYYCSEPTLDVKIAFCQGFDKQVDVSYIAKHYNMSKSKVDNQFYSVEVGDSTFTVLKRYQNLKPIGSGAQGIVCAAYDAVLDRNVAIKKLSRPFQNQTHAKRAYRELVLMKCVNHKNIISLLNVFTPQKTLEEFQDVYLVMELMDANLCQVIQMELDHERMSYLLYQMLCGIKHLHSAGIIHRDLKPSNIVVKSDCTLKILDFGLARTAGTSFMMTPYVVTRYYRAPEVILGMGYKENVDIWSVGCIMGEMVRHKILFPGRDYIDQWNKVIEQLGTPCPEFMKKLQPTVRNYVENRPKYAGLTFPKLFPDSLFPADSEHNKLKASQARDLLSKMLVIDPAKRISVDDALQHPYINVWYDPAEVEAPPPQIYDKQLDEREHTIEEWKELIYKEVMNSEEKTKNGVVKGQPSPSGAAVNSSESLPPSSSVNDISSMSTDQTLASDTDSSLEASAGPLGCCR

PDGFRα(V561D)(h) = PDGFRα(V561D)(h) (human, UniProt P16234 550-1089, limits assumed)
PDGFRα(V561D)(h), sequence (P16234 550-1089 V561D limits assumed): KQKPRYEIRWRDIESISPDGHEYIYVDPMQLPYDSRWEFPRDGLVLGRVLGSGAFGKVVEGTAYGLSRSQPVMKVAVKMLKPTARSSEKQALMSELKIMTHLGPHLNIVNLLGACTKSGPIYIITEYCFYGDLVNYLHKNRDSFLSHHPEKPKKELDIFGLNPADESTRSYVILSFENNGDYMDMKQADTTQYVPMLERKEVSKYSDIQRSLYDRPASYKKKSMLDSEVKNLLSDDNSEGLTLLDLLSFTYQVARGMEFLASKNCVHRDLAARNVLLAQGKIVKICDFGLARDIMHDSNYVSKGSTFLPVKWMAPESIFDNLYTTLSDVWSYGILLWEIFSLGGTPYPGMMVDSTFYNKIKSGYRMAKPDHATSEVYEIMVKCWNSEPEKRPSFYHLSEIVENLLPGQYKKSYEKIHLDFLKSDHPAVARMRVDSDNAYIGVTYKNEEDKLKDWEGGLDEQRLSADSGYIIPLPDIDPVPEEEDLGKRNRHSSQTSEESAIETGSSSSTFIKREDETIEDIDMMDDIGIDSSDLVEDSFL

ROCK-I(h) = ROCK-I(h) (human, UniProt Q13464 17-535)
ROCK-I(h), sequence (Q13464 17-535 limits assumed): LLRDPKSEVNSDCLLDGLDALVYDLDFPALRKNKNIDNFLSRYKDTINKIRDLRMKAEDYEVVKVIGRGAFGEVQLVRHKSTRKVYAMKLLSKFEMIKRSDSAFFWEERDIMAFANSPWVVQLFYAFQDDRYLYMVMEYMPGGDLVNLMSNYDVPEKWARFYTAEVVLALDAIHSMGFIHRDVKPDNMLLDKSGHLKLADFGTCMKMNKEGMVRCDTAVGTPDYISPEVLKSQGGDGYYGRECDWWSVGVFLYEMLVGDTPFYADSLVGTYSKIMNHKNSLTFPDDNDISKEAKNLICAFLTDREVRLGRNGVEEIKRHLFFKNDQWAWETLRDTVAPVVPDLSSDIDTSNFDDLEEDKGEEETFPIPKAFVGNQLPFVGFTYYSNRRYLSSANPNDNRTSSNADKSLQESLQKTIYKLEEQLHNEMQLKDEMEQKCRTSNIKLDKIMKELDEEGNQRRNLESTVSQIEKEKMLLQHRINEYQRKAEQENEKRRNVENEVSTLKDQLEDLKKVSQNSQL

Met(Y1248D)(h) = Met(Y1248D)(h) (human, UniProt P08581-2 974-1408, limits assumed)
PKBα(h) = PKBα(h) (human, UniProt P31749 1-480, limits assumed)
PKBα(h), sequence (P31749 whole entry): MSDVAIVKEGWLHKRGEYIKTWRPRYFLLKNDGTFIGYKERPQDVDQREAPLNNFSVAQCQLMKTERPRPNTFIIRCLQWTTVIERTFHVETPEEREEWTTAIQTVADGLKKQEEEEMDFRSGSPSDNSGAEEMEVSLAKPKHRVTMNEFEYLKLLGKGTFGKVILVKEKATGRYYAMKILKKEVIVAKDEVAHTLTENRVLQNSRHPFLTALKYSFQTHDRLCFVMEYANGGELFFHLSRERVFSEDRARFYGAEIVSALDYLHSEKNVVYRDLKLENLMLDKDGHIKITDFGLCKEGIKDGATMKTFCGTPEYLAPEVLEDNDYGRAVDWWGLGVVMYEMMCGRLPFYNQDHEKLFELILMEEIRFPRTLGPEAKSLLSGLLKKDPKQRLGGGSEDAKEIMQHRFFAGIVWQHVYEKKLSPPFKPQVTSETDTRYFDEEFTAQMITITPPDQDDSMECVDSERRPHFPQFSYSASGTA

MST3(h) = MST3(h) (human, UniProt Q9Y6E0 1-443, limits assumed)
MST3(h), sequence (Q9Y6E0 whole entry): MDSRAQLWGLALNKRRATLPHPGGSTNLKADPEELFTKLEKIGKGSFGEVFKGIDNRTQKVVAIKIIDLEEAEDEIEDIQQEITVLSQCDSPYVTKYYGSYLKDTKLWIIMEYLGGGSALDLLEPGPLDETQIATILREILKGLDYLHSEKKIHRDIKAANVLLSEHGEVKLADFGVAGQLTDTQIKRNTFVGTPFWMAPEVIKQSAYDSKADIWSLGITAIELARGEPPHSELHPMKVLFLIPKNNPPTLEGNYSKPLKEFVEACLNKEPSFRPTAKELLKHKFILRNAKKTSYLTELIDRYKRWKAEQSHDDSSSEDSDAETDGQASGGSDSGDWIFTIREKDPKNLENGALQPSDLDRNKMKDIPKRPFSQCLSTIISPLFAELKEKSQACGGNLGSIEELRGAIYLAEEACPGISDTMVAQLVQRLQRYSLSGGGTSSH

CDK9/cyclin T1(h) = CDK9/cyclin T1(h) (human, UniProt P50750 1-372; O60563 1-726, limits assumed)
Met(D1246N)(h) = Met(D1246N)(h) (human, UniProt P08581-2 974-1408, limits assumed)
Note: test concentration or dose not given here.

Row | % activity (SGK3(h)) [%] | % activity (MAPKAP-K3(h)) [%] | % activity (ZAP-70(h)) [%] | % activity (CHK2(R145W)(h)) [%] | % activity (ULK2(h)) [%] | % activity (PKCθ(h)) [%] | % activity (CaMKIV(h)) [%] | % activity (JNK3(h)) [%] | % activity (PDGFRα(V561D)(h)) [%] | % activity (ROCK-I(h)) [%] | % activity (Met(Y1248D)(h)) [%] | % activity (PKBα(h)) [%] | % activity (MST3(h)) [%] | % activity (CDK9/cyclin T1(h)) [%] | % activity (Met(D1246N)(h)) [%] | Binder
1 | 10 | 3 | 75 | 33 | 122 | 88 | 17 | 89 | 82 | 79 | 102 | 57 | 45 | 91 | 82 | FAKLAARLYRKALARQLGVAA [MMI-0300]
2 | 8 | 7 | 33 | 31 | 131 | 76 | 18 | 70 | 100 | 73 | 31 | 67 | 36 | 235 | 31 | KAFAKLAARLYRKALARQLGVAA [MMI-0400]
